Laboratory results reported in US20250011363A1, “OPTIMIZED SHORTENED PEPTIDE THAT BINDS TO ACETYLCHOLINE RECEPTOR, AND USE THEREOF” (SKINMED CO., LTD., priority 2021, published 2025).

These substances were tested against acetylcholine receptor (Homo sapiens, UniProt P02708) (assay: SPR binding affinity (RU) of optimized 5mer/6mer/7mer peptides, Examples 6-7). Details: 6mer-1 Top sequence; SPR; peptides tested at 10 μM.
How it was run: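 Binding response (RU) to the human acetylcholine receptor was measured by SPR. Each 5mer or 6mer library peptide was applied at 10 μM, with sequences drawn from top and bottom amino-acid combinations.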

acetylcholine receptor, sequence (P02708 21-457): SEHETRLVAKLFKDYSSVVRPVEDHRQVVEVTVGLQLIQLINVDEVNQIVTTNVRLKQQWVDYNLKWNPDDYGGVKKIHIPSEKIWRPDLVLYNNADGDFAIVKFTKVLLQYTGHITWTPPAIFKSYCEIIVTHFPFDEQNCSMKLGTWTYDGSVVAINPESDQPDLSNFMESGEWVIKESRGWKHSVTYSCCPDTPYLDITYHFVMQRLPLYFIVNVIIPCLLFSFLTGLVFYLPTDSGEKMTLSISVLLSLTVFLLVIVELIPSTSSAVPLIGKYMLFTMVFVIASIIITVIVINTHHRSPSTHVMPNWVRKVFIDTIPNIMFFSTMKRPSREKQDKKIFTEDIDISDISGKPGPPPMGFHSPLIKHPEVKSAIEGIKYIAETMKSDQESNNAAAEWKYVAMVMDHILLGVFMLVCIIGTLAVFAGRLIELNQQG

Row | Substance | Binding affinity [Ru]
1 | 6mer-1-316 (RKQIRK) | 145
2 | 6mer-1-315 (RKQQTK) | 128
3 | 6mer-1-251 (RKVQSK) | 133
4 | 6mer-1-357 (KRRQTR) | 148
5 | 6mer-1-317 (KRSFRR) | 148

Same assay, conditions: 6mer-2 Top sequence; SPR; peptides tested at 10 μM

Row | Substance | Binding affinity [Ru]
6 | 6mer-2-34 (KVFRRK) | 124
7 | 6mer-2-115 (KWQYRK) | 144
8 | 6mer-2-79 (RQLSKR) | 135
9 | 6mer-2-40 (RRYRKK) | 153
10 | 6mer-2-130 (RGVCRR) | 122

Same assay, conditions: SPR, Resonance Units; 5mer Bottom sequence (bottom combinations); peptides tested at 10 μM

Row | Substance | Binding affinity [Ru]
11 | 5mer-683 (KYPDK) | 32
12 | 5mer-988 (RCKWR) | 17
13 | 5mer-779 (KYPPR) | 21
14 | 5mer-972 (KYAKR) | 14
15 | 5mer-1016 (KYTMR) | 28
16 | 5mer-1010 (KCDNK) | 16
17 | 5mer-641 (RITWK) | 22
18 | 5mer-1051 (RYAHR) | 28
19 | 5mer-1031 (RKEER) | 13
20 | 5mer-691 (KEWEK) | 16
21 | 5mer-782 (KANAR) | 32
22 | 5mer-681 (KDTMR) | 18
23 | 5mer-636 (KDKGR) | 11
24 | 5mer-1008 (KDSNR) | 11
25 | 5mer-1074 (RPCPR) | 17
26 | 5mer-995 (KFTDK) | 18
27 | 5mer-723 (RASPR) | 22
28 | 5mer-674 (KETHR) | 22
29 | 5mer-624 (KEHER) | 22
30 | 5mer-989 (RCTAR) | 31

Same assay, conditions: SPR, Resonance Units; peptides tested at 10 μM; 6mer-1 Bottom sequence

Row | Substance | Binding affinity [Ru]
31 | 6mer-1-1095 (RRCHVK) | 27
32 | 6mer-1-1105 (RRCTAR) | 40
33 | 6mer-1-1091 (KKDDGK) | 32
34 | 6mer-1-1027 (KKPWHK) | 22
35 | 6mer-1-1145 (RRDCKK) | 40
36 | 6mer-1-1148 (RRCSHR) | 31

Same assay, conditions: SPR, Resonance Units; peptides tested at 10 μM; 6mer-1 Bottom sequence (Table 11)

Row | Substance | Binding affinity [Ru]
37 | 6mer-1-752 (KRPTEK) | 16
38 | 6mer-1-613 (KRIMKK) | 14
39 | 6mer-1-737 (RRKNAR) | 27
40 | 6mer-1-771 (KKMDIK) | 17
41 | 6mer-1-672 (RKMEIR) | 17
42 | 6mer-1-678 (KRMAAK) | 25
43 | 6mer-1-654 (KRMNDR) | 23
44 | 6mer-1-691 (RKPKAR) | 31

Same assay, conditions: SPR, Resonance Units; peptides tested at 10 μM; 6mer-2 Bottom sequence

Row | Substance | Binding affinity [Ru]
45 | 6mer-2-716 (RTWKKR) | 18
46 | 6mer-2-970 (KDDVRR) | 27
47 | 6mer-2-852 (RNCERR) | 28
48 | 6mer-2-708 (RAWVKK) | 29
49 | 6mer-2-980 (KESGKR) | 34
50 | 6mer-2-924 (RFDHKK) | 28
51 | 6mer-2-815 (KICGRK) | 30
52 | 6mer-2-990 (RKKMKR) | 41
53 | 6mer-2-715 (RATHRK) | 32
54 | 6mer-2-961 (KNTKKR) | 21
55 | 6mer-2-977 (REMKRK) | 30
56 | 6mer-2-889 (REWDKK) | 12
57 | 6mer-2-929 (KNHMRK) | 26
58 | 6mer-2-975 (KKTMKK) | 38

Same assay, conditions: SPR, Resonance Units; peptides tested at 10 μM; 6mer-2 Top sequence

Row | Substance | Binding affinity [Ru]
59 | 6mer-2-423 (RLQYRK) | 154
60 | 6mer-2-412 (KRFLKK) | 139
61 | 6mer-2-414 (KWRQKK) | 135
62 | 6mer-2-561 (RRVLKK) | 142
63 | 6mer-2-555 (RSVSKK) | 154
64 | 6mer-2-531 (KVIYKR) | 148
65 | 6mer-2-482 (KGQTRR) | 154
66 | 6mer-2-419 (RSRYKK) | 154

Same assay, conditions: SPR, Resonance Units; peptides tested at 10 μM; 6mer-2 Top sequence (Table 12)

Row | Substance | Binding affinity [Ru]
67 | 6mer-2-383 (KLVRRK) | 128
68 | 6mer-2-292 (RQLCKR) | 121
69 | 6mer-2-308 (KGISKR) | 148
70 | 6mer-2-262 (KWILKR) | 142
71 | 6mer-2-204 (RRVQKR) | 142
72 | 6mer-2-211 (RGLSRR) | 135
73 | 6mer-2-387 (KWLCKK) | 146

Same assay, conditions: SPR, peptides at 10 μM; 6mer-2 Bottom sequence

Row | Substance | Binding affinity [Ru]
74 | 6mer-2-1046 (RNSEKR) | 39
75 | 6mer-2-1157 (RNTDRK) | 37
76 | 6mer-2-1143 (KACIKK) | 42

Same assay, conditions: SPR, peptides tested at 10 μM; 5mer Top sequence

Row | Substance | Binding affinity [Ru]
77 | 5mer-459 (RSQLR) | 76
78 | 5mer-10 (RVQRR) | 55
79 | 5mer-433 (KWRCR) | 73
80 | 5mer-471 (RGYLR) | 69
81 | 5mer-31 (RRLQR) | 65
82 | 5mer-307 (KQRCK) | 82
83 | 5mer-407 (RQIYK) | 58
84 | 5mer-506 (RGRLR) | 51
85 | 5mer-344 (KQFQR) | 52
86 | 5mer-356 (KQVLR) | 65
87 | 5mer-499 (RVLTK) | 76

Same assay, conditions: SPR, peptides tested at 10 μM; 5mer Top sequence (top combinations)

Row | Substance | Binding affinity [Ru]
88 | 5mer-286 (RWFQK) | 71
89 | 5mer-566 (KQLYK) | 78
90 | 5mer-535 (KSLLR) | 70
91 | 5mer-274 (RQVRK) | 62
92 | 5mer-519 (RLYSK) | 72
93 | 5mer-300 (RQYRK) | 81
94 | 5mer-242 (RGYTK) | 64
95 | 5mer-218 (KVQYK) | 80
96 | 5mer-586 (KGRRR) | 78
97 | 5mer-285 (KGQLK) | 75
98 | 5mer-562 (RVRQR) | 70
99 | 5mer-224 (RLQRR) | 67
100 | 5mer-525 (KQRYK) | 51

Same assay, conditions: SPR, peptides tested at 10 μM; 6mer-1 Bottom sequence (Table 11)

Row | Substance | Binding affinity [Ru]
101 | 6mer-1-866 (KRCHFR) | 26
102 | 6mer-1-916 (RRNAAK) | 33
103 | 6mer-1-830 (KKTTMK) | 33
104 | 6mer-1-806 (RKKTIR) | 12

Same assay, conditions: SPR, peptides tested at 10 μM; 6mer-1 Top sequence

Row | Substance | Binding affinity [Ru]
105 | 6mer-1-587 (KKQLLK) | 148
106 | 6mer-1-456 (RRGQYR) | 153
107 | 6mer-1-551 (KRGRLR) | 142
108 | 6mer-1-475 (RKLQTK) | 148
109 | 6mer-1-409 (RRWISR) | 144

Same assay, conditions: SPR, peptides tested at 10 μM; 6mer-1 Top sequence (top combinations)

Row | Substance | Binding affinity [Ru]
110 | 6mer-1-115 (RRSLSR) | 133
111 | 6mer-1-65 (KKSRRR) | 121
112 | 6mer-1-129 (RRRQSK) | 121
113 | 6mer-1-116 (RKVRCK) | 139
114 | 6mer-1-184 (KRQICR) | 139

Same assay, conditions: SPR; XRRGVRR-7mer and RRGVRRX-7mer

Row | Substance | Binding affinity, values relative to the RRGVRR sequence
115 | 3674 (RRGVRRN) [compound 3674] | 105

Same assay, conditions: SPR; XRRQRR-6mer and RRQRRX-6mer

Row | Substance | Binding affinity, relative value to the RRQRR sequence
116 | 3626 (RRQRRL) [compound 3626] | 141
117 | 3637 (RRQRRR) [compound 3637] | 192

Same assay, conditions: SPR; peptides tested at 10 μM; 5mer Bottom sequence

Row | Substance | Binding affinity [Ru]
118 | 5mer-1181 (KKAKR) | 22
119 | 5mer-1155 (RYDMK) | 25
120 | 5mer-1187 (KHHIR) | 27
